Experiment [1] addresses T1, Activin A (homodimer of two inhibin βA subunits; R&D Systems, #338-AC) (human, UniProt P08476 311-426).
T1 construct: Bought protein; also called inhibin-βA dimer
T1 sequence: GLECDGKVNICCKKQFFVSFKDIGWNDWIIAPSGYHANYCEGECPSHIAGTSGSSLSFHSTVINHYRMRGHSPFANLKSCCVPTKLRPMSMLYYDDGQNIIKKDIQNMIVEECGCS
As to the kind of experiment: SPR blocking: 5 nM Activin A + 15 nM binder over hActRIIA-hFc surface. The method, then:
(§1) The binding signal (RU) was measured at 150 seconds after the start of the injection, and this signal was subtracted by the measured RU value for a negative control reference surface to determine the specific binding signal.

Experiment [2] concerns the target T1, Activin A (homodimer of two inhibin βA …). As to the kind of experiment: SPR blocking: 5 nM Activin A + 30 nM binder over hActRIIA-hFc surface. The method, then:
as §1

Experiment [3] has the same target. Put plainly: SPR blocking: 5 nM Activin A + 60 nM binder over hActRIIA-hFc surface. The method, then: as §1
The target is the same in experiment [4]. As to the kind of experiment: SPR blocking: 5 nM Activin A + 0 nM binder over Follistatin-288 surface. As for the experimental part:
as §1

Experiment [5] has the same target. Put plainly: SPR blocking: 5 nM Activin A + 0.00 nM binder over hActRIIA-hFc surface. As for the experimental part:
as §1

Experiment [6] has the same target. Put plainly: SPR blocking: 5 nM Activin A + 0.94 nM binder over hActRIIA-hFc surface. The method, then: as §1
Experiment [7] has the same target. As to the kind of experiment: SPR blocking: 5 nM Activin A + 1.88 nM binder over hActRIIA-hFc surface. The method, then:
as §1

Experiment [8] has the same target. Put plainly: SPR blocking: 5 nM Activin A + 3.75 nM binder over hActRIIA-hFc surface. As for the experimental part: as §1
The target is the same in experiment [9]. As to the kind of experiment: SPR blocking: 5 nM Activin A + 7.50 nM binder over hActRIIA-hFc surface. The method, then:
as §1

Experiment [10] shares this target. As to the kind of experiment: SPR blocking: 5 nM Activin A + 15 nM binder over Follistatin-288 surface. The method, then: as §1
Experiment [11] shares this target. As to the kind of experiment: SPR blocking: 5 nM Activin A + 30 nM binder over Follistatin-288 surface. As for the experimental part: as §1
Experiment [12] has the same target. Put plainly: SPR blocking: 5 nM Activin A + 60 nM binder over Follistatin-288 surface. The method, then:
as §1

Experiment [13] shares this target. Put plainly: SPR blocking: 5 nM Activin A + 7.5 nM binder over Follistatin-288 surface. As for the experimental part: as §1
Experiment [14] shares this target. As to the kind of experiment: SPR blocking: 5 nM Activin A + 0.94 nM binder over Follistatin-288 surface. The method, then: as §1
The target is the same in experiment [15]. Put plainly: SPR blocking: 5 nM Activin A + 1.88 nM binder over Follistatin-288 surface. As for the experimental part:
as §1

Experiment [16] shares this target. Put plainly: SPR blocking: 5 nM Activin A + 3.75 nM binder over Follistatin-288 surface. The method, then: as §1
The target is the same in experiment [17]. As to the kind of experiment: SPR blocking: 5 nM Activin A + 15 nM binder over hActRIIB-hFc (Control 4) surface.
Experiment [18] has the same target. Put plainly: SPR blocking: 5 nM Activin A + 30 nM binder over hActRIIB-hFc (Control 4) surface. The method, then: as §1
The target is the same in experiment [19]. As to the kind of experiment: SPR blocking: 5 nM Activin A + 60 nM binder over hActRIIB-hFc (Control 4) surface. As for the experimental part: as §1
For experiment [20] the target is unchanged. Put plainly: SPR blocking: 5 nM Activin A + 0.00 nM binder over hActRIIB-hFc (Control 4) surface. The method, then:
as §1

Experiment [21] shares this target. Put plainly: SPR blocking: 5 nM Activin A + 0.94 nM binder over hActRIIB-hFc (Control 4) surface.
Experiment [22] shares this target. As to the kind of experiment: SPR blocking: 5 nM Activin A + 1.88 nM binder over hActRIIB-hFc (Control 4) surface. The method, then: as §1
Experiment [23] has the same target. Put plainly: SPR blocking: 5 nM Activin A + 3.75 nM binder over hActRIIB-hFc (Control 4) surface. The method, then:
as §1

Experiment [24] shares this target. Put plainly: SPR blocking: 5 nM Activin A + 7.50 nM binder over hActRIIB-hFc (Control 4) surface.

B1: H4H10446P2 (antibody, human IgG4, V domains shown)
VH: QVQLQESGPGLVKPSETLSLTCTVSGGSFSSHFWSWIRQPPGKGLEWIGYILYTGGTSFNPSLKSRVSMSVGTSKNQFSLKLSSVTAADTAVYYCARARSGITFTGIIVPGSFDIWGQGTMVTVSS
VL: not shown
notes: H4H prefix means human IgG4 Fc
In the case of B1, the “% bound RU w/no inhibitor” value in experiment [1] turned out to be 108%; in experiment [2], 98%; in [3] it was 118%; in [4], 100%; in experiment [5], 100%; in experiment [6], 111%. Besides, the “% bound RU w/no inhibitor” value in [7] stood at 115%; in experiment [8], 85%; in [9], 94%; in [10], 3%; in [11] it was 3%; in experiment [12], 3%. Moreover, the “% bound RU w/no inhibitor” value in experiment [13] is 3%; in [14], 77%; in experiment [15], 54%; in experiment [16], 7%; in experiment [17], 115%; in [18], 89%. The “% bound RU w/no inhibitor” value in experiment [19] amounted to 129%; in experiment [20] it was 100%; in experiment [21], 107%; in experiment [22] it was 105%; in [23], 76%; in experiment [24], 95%.

B2: H4H10430P (antibody, human IgG4, V domains shown)
VH: EVQLVESGGGLVQPGRSLRLSCKASGFAFDDFAMHWVRQAPGKGLEWVSGIVWNSGDIGYADSVKGRFTISRDNAKNSLYLQLNSLRTEDTALYFCVKDMVRGLMGFNYYGMDVWGQGTTVTVSS
VL: EIVLTQSPATLSLSPGERATLSCRASQTISTYLVWYRQRPGQAPSLLIYDASNRATDIPARFSGSGSGTDFTLTISSLEPEDFAVYYCQQRSNWPITFGQGTRLEIK
notes: as for B1
Turning to B2, the “% bound RU w/no inhibitor” value in experiment [1] is 2%; in [2], 2%; in experiment [3], 2%; in experiment [4], 100%; in [5] it was 100%; in experiment [6], 81%. Besides, the “% bound RU w/no inhibitor” value in experiment [7] came out at 62%; in experiment [8] it was 19%; in experiment [9], 3%; in experiment [10] it was 1%; in experiment [11], 1%; in [12] it was 1%. Also, the “% bound RU w/no inhibitor” value amounted to 1% in experiment [13]; 79% in experiment [14]; 59% in experiment [15]; 15% in [16]; 3% in experiment [17]; 3% in [18]. Besides, the “% bound RU w/no inhibitor” value in experiment [19] is 3%; in [20], 100%; in experiment [21], 80%; in [22] it was 62%; in [23], 20%; in experiment [24] it was 4%.

B3: H4H10440P2 (antibody, human IgG4, V domains shown)
VH: EVQLVESGGGVVQPGGSLRLSCAASTFTFDDFAMHWVRQAPGKGLEWVSLITGDGGSTYYADPVKGRFTISRDNSKNSLYLQMNSLRTEDTALYYCVKDWWIAARPDYYYYGMDVWGQGTTVTVSS
VL: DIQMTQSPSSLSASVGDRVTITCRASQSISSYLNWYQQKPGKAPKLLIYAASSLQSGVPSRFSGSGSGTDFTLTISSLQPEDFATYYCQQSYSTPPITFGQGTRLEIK
notes: as for B1
On to B3, for which the “% bound RU w/no inhibitor” value in experiment [1] was found to be 4%; in experiment [2], 3%; in experiment [3], 3%; in [4] it was 100%; in [5] it was 100%; in [6], 75%. The “% bound RU w/no inhibitor” value in experiment [7] was found to be 52%; in experiment [8], 17%; in experiment [9] it was 6%; in experiment [10], 2%; in experiment [11] it was 1%; in experiment [12], 0%. Further, the “% bound RU w/no inhibitor” value in [13] was found to be 4%; in experiment [14], 76%; in experiment [15], 57%; in experiment [16] it was 17%; in experiment [17] it was 4%; in experiment [18], 4%. Besides, the “% bound RU w/no inhibitor” value stood at 4% in experiment [19]; 100% in experiment [20]; 79% in experiment [21]; 58% in experiment [22]; 19% in [23]; 7% in experiment [24].
